Data as given in patent US20200397816A1, “METHODS TO TREAT INFLAMMATORY AND SMOOTH MUSCLE CELL PROLIFERATION DISORDERS” (THE TRUSTEES OF INDIANA UNIVERSITY, priority 2019, published 2020).
“Also recorded” adds a separate entry of the source.

System: pSphK1 (Ser225)
Assay: pSphK1 (Ser225) immunoblotting and immunofluorescence in hPASMC
Type: cell-based, human
Details: SMCs
Experimental: RAW 264.7 (ATCC) mouse macrophages and Human Embryonic Kidney (HEK) 293T cells were cultured in DMEM media with 10% fetal bovine serum […] and glutamine HEPES buffer and beta-mercaptoethanol were added to the growth medium used for RAW 264.7 macrophages. […]
(§1) After appropriate treatments, protein lysates were prepared by using RIPA buffer supplemented with phosphatase and protease inhibitors (Thermo Fischer Scientific). […] Western blots were performed according to standard methods and quantified using densitometry using Image Studio Lite software from LI-COR Biosciences. […]
as §1, with “Fisher” for “Fischer”

B1: EMAP II: 6x-His tagged recombinant EMAP II, cleaved C-terminal peptide of AIMP1 (SEQ ID NO: 2), pro-inflammatory cytokine (protein)
chain: IAGSADSKPIDVSRLDLRIGCIITARKHPDADSLYVEEVDVGEIAPRTVVSGLVNHVPLEQMQNRMVILLCNLKPAKMRGVLSQAMVMCASSPEKIEILAPPNGSVPGDRITFDAFPGEPDKELNPKKKIWEQIQPDLHTNDECVATYKGVPFEVKGKGVCRAQTMSNSGIK
- pSphK1 localization to the plasma membrane (immunostaining pSphK1 and actin, 15 minutes, 1 hour, 6 hours EMAP II): stimulated translocation; also recorded: trafficked to the plasma membrane; also recorded: increased pSPHK1 signal
- SphK1 phosphorylation (pSphK1/Tubulin) (peaks at 1 and 6 hours of EMAP II): bi-modal SphK1 phosphorylation; also recorded: bimodal SPHK1 phosphorylation
